Test results from US20250051454A1 (DUKE UNIVERSITY, published 2025).
Where a chain is given by its changes, count along the chain named.

Experiments:
[1] = biological target: T1, HLA-E-RL9SIV single chain trimer on transfected 293T cells (human, UniProt P61769 21-119; P13747 22-358); test: flow cytometry, SCT-transfected 293T cells, MFI bar chart [E]
T1 construct: also called control HLA-E-peptide complex

[2] = biological target: T2, HLA-E-RL9HIV single chain trimer on transfected 293T cells (human, UniProt P61769 21-119; P13747 22-358); test: as above
T2 construct: also called control HLA-E-peptide complex

B1: CA151 (antibody, V domains shown)
VH: QVQLQESGPGLVKPSETLSLTCTVSGGSVSSGSYYWSWIRQPPGKGLEWIGYIYYSGSTNYNPSLKSRVTISVDTSKNQFSLKLSSVTAADTAVYYCASFTRMSPYAFDIWGQGTMVTVSS
VL: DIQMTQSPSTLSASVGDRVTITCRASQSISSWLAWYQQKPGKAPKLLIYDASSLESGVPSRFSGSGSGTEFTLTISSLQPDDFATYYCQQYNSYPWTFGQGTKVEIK
[1]
  binding result: no binding (tested: 2 µg/ml)
[2]
  binding result: no binding (tested: 2 µg/ml)

B2: CA152 (antibody, V domains shown)
VH: QVQLVQSGAEVKKPGSSVKVSCKASGGTFSSYAISWVRQAPGQGLEWMGGIIPIFGTANYAQKFQGRVTITADESTSTAYMELSSLRSEDTAVYYCARGQWSPGGYGMDVWGQGTTVTVSS
VL: not shown
[1]
  binding result: no binding (tested: 2 µg/ml)
[2]
  binding result: no binding (tested: 2 µg/ml)

B3: CA153 (antibody, V domains shown)
VH: EVQLVESGGGLVKPGGSLRLSCAASGFTFSSYSMNWVRQAPGKGLEWVSSISSSSSYIYYADSVKGRFTISRDNAKNSLYLQMNSLRAEDTAVYYCARLTYYYYMDVWGKGTTVTVSS
VL: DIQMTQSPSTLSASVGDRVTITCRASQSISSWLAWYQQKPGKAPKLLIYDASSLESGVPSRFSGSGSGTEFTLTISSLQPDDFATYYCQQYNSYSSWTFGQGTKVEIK
[1]
  binding result: no binding (tested: 2 µg/ml)
[2]
  binding result: no binding (tested: 2 µg/ml)

B4: CA154 (antibody, V domains shown)
VH: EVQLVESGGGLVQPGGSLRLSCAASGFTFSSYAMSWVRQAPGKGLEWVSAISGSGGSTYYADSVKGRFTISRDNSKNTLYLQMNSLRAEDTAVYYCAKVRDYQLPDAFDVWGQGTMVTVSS
VL: AIRMTQSPSSFSASTGDRVTITCRASQGISSYLAWYQQKPGKAPKLLIYAASTLQSGVPSRFSGSGSGTDFTLTISCLQSEDFATYYCQQYYSYALTFGGGTKVEIK
[1]
  binding result: no binding (tested: 2 µg/ml)
[2]
  binding result: no binding (tested: 2 µg/ml)

B5: CA156 (antibody, V domains shown)
VH: EVQLVESGGGLVKPGGSLRLSCAASGFTFSSYSMNWVRQAPGKGLEWVSSISSSSSYIYYADSVKGRFTISRDNAKNSLYLQMNSLRAEDTAVYYCARDFSGDFWSGYDYWGQGTLVTVSS
VL: not shown
[1]
  binding result: no binding (tested: 2 µg/ml)
[2]
  binding result: no binding (tested: 2 µg/ml)

B6: CA157 (antibody, V domains shown)
VH: EVQLVESGGGLVQPGGSLRLSCAASGFTFSSYEMNWVRQAPGKGLEWVSYISSSGSTIYYADSVKGRFTISRDNAKNSLYLQMNSLRAEDTAVYYCARGYCSSTSCPFDYWGQGTLVTVSS
VL: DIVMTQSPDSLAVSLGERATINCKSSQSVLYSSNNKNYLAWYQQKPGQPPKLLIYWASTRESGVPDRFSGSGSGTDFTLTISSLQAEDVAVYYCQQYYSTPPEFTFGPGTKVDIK
[1]
  binding result: no binding (tested: 2 µg/ml)
[2]
  binding result: no binding (tested: 2 µg/ml)

B7: CA158 (antibody, V domains shown)
VH: B3 VH with L99M, T100Y, Y101Q, Y102L, Y103A, Y104A, M105I, V107Y, K110Q, T113L
VL: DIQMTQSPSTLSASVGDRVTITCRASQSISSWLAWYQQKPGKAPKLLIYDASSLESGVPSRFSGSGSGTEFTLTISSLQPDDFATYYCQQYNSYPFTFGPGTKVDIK
[1]
  binding result: no binding (tested: 2 µg/ml)
[2]
  binding result: no binding (tested: 2 µg/ml)

B8: CA159 (antibody, V domains shown)
VH: QVQLVQSGAEVKKPGSSVKVSCKASGGTFSSYAISWVRQAPGQGLEWMGGIIPIFGTANYAQKFQGRVTITADESTSTAYMELSSLRSEDTAVYYCARASYYYYYMDVWGKGTTVTVSS
VL: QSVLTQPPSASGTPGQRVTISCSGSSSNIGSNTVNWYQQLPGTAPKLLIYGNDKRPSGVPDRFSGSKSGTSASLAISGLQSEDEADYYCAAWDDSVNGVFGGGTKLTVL
[1]
  binding result: no binding (tested: 2 µg/ml)
[2]
  binding result: no binding (tested: 2 µg/ml)

B9: CA162 (antibody, V domains shown)
VH: QVQLVESGGGLVKPGGSLRLSCAASGFTFSDYYMSWIRQAPGKGLEWVSYISSSSSYTNYADSVKGRFTISRDNAKNSLYLQMNSLRAEDTAVYYCARGRTMFKNYYDSSGYYGYFDYWGQGTLVTVSS
VL: DIQMTQSPSSVSASVGDRVTITCRASQGISSWLAWYQQKPGKAPKLLIYAASSLQSGVPSRFSGSGSGTDFTLTISSLQPEDFATYYCQQANSPLTFGGGTKVEIK
[1]
  binding result: no binding (tested: 2 µg/ml)
[2]
  binding result: no binding (tested: 2 µg/ml)

B10: CA166 (antibody, V domains shown)
VH: EVQLVESGGGLVKPGGSLRLSCAASGFTFSSYSMNWVRQAPGKGLEWVSSISSSSSYIYYADSVKGRFTISRDNAKNSLYLQMNSLRAEDTAVYYCARVMITFGGADYWGQGTLVTVSS
VL: DIQMTQSPSSLSASVGDRVTITCRASQNINTYLNWYQKRPGIAPKLLIYGASSLQSGVPSRFSGSGSGTDFTLTISSLQPEDFATYYCQQYHTSPLTFGGGTPVDIK
[1]
  binding result: no binding (tested: 2 µg/ml)
[2]
  binding result: no binding (tested: 2 µg/ml)

B11: CA168 (antibody, V domains shown)
VH: QVQLVQSGAEVKKPGSSVKVSCKASGGTFSSYAISWVRQAPGQGLEWMGGIIPIFGTANYAQKFQGRVTITADKSTSTAYMELSSLRSEDTAVYYCARALTYYDFPDYGMDVWGQGTTVTVSS
VL: QSALTQPPSASGSPGQSVTISCTGTSSDVGGYNYVSWYQQHPGKVPKLMIYEVTKRPSGVPDRFSGSKSGNTASLTVSGLQAEDEADYYCSSYAGSNNLVFGGGTKLTVL
[1]
  binding result: no binding (tested: 2 µg/ml)
[2]
  binding result: no binding (tested: 2 µg/ml)

B12: CA169 (antibody, V domains shown)
VH: EVQLVESGGGLVKPGGSLRLSCAASGFTFSSYSMNWVRQAPGKGLEWVSSISSSSSYIYYADSVKGRFTISRDNAKNSLYLQMNSLRAEDTAVYYCASGVLLEAFDYWGQGTLVTVSS
VL: SYVLTQPPSVSVAPGQTARITCGGNNIGSKSVHWYQQKPGQAPVLVVYDDSDRPSGIPERFSGSNSGNTATLTISRVEAGDEADYYCQVWDSSSDHVVFGGGTKLTVL
[1]
  binding result: no binding (tested: 2 µg/ml)
[2]
  binding result: no binding (tested: 2 µg/ml)

B13: CA170 (antibody, V domains shown)
VH: B10 VH with V99D, M100R, I101D, T102L, F103L, G104D, G105A, A106F, Y108I, L114M
VL: SYVLTQPPSVSVAPGQTARITCGGNNIGSKSVHWYQQKPGQAPVLVVYDDSDRPSGIPERFSGSNSGNTATLTISRVEAGDEADYYCQVWDSSSDHPWVFGGGTKLTVL
[1]
  binding result: no binding (tested: 2 µg/ml)
[2]
  binding result: no binding (tested: 2 µg/ml)

B14: CA173 (antibody, V domains shown)
VH: EVQLVESGGGLVKPGGSLRLSCAASGFTFSSYSMNWVRQAPGEGLEWVSSISSSSTYIYYADSVKGRFTISRDNAKNSLYLQMNSLRAEDTAVYYCARDRPAGSSSLGSGYFDLWGRGTLVTVSS
VL: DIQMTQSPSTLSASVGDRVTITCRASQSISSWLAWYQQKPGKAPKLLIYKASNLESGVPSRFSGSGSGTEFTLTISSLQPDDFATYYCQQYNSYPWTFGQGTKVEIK
[1]
  binding result: no binding (tested: 2 µg/ml)
[2]
  binding result: no binding (tested: 2 µg/ml)

B15: CA175 (antibody, V domains shown)
VH: EVQLVESGGGLVQPGGSLRLSCAASGFTFSTYPMNWVRQAPGKGLEWVSYISSSSSTIYYADCVKGRFTISRDNAKNSLYLQMNSLRDEDTAVYYCARYYIAYGMDVWGQGTTVTVSS
VL: DIQMTQSPSSMSASVGDRVTITCRASQGISNYLAWFQQKPGKAPKRLIYGASSLHRGVPSRFSGSGSGTEFTLTITSLQPEDFATYYCLQHNTYPRTFGQGTKVEIK
[1]
  binding result: no binding (tested: 2 µg/ml)
[2]
  binding result: no binding (tested: 2 µg/ml)

B16: CA176 (antibody, V domains shown)
VH: QVQLVESGGGVVQPGRSLRLSCAASGFTFSSYGMHWVRQAPGKGLEWVAVISYDGSNKYYADSVKGRFTISRDNSKNTLYLQMNSLRAEDTAVYYCAKDEGSSDFWSGYYASFDYWGQGTLVTVSS
VL: DIQMTQSPISLSASVGDRVTITCRASQDISNYLTWYQQKPGKAPKLLIYAASSLQSGVPSRFSGSGSGTDFTLTISNLQPEDFATYYCQQNYSYPCTFGQGTKVEIK
[1]
  binding result: no binding (tested: 2 µg/ml)
[2]
  binding result: no binding (tested: 2 µg/ml)

B17: CA177 (antibody, V domains shown)
VH: QVQLQESGPGLVKPSETLSLTCTVSGGSISSYYWSWIRQPPGKGLEWIGYIYYSGSTNYNPSLKSRVTISVDTSKNQFSLKLSSVTAADTAVYYCASHDYTDHAAGYWGQGTLVTVSS
VL: not shown
[1]
  binding result: no binding (tested: 2 µg/ml)
[2]
  binding result: no binding (tested: 2 µg/ml)

B18: CA178 (antibody, V domains shown)
VH: QVQLVQSGAEVKKPGSSVKVSCKASGGTFSSYAISWVRQAPGQGLEWMGGIIPIFGTANYAQKFQGRVTITADESTSTAYMELSSLRSEDTAVYYCARDYGGSYYYEYFQHWGQGTLVTVSS
VL: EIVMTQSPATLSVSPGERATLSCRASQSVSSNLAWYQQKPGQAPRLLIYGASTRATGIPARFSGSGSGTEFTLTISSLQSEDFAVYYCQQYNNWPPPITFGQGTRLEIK
[1]
  binding result: no binding (tested: 2 µg/ml)
[2]
  binding result: no binding (tested: 2 µg/ml)

B19: CA180 (antibody, V domains shown)
VH: QVQLVQSGAEVKKPGASVKVSCKASGYTFTSYGISWVRQAPGQGLEWMGWISAYNGNTNYAQKLQGRVTMTTDTSTSTAYMELRSLRSDDTAVYYCARDLGYSSSWYTSNWFDPWGQGTLVTVSS
VL: QSALTQPASVSGSPGQSITISCTGTSSDVGSYNLVSWYQQHPGKAPKLMIYEGSKRPSGVSNRFSGSKSGNTASLTISGLQAEDEADYYCCSYAGSSTVVFGGGTKLTVL
[1]
  binding result: no binding (tested: 2 µg/ml)
[2]
  binding result: no binding (tested: 2 µg/ml)
